6 molecules from patent publication US11833164B2, “Methods of treating Fabry disease in patients having a mutation in the GLA gene” (Amicus Therapeutics, Inc., priority 2019, dated 2023) can be followed below.

For the assay, the system named is mutant form of α-Gal A expressed in HEK-293 cells. Description: HEK assay (GLP HEK / Migalastat Amenability Assay): α-Gal A activity in lysates of transiently transfected HEK-293 cells incubated with or without 10 μM migalastat. The settings on record: for Absolute increase (% WT): 10 μM migalastat versus baseline; for Relative increase: 10 μM migalastat α-Gal A activity relative to baseline; for 10 μM migalastat α-Gal A activity (% WT): 5 days; for 10 μM migalastat α-Gal A activity (% WT) / Baseline α-Gal A activity (% WT): percentage of baseline wild-type α-Gal A activity; for 10 μM migalastat α-Gal A activity (% WT) / Baseline α-Gal A activity (% WT) / Baseline α-Gal A activity / 10 μM migalastat α-Gal A activity: mean ± SEM; for Baseline α-Gal A activity (% WT): absence of migalastat; for Baseline α-Gal A activity / 10 μM migalastat α-Gal A activity: lysates of HEK-293 cells transfected with the mutant form; for Baseline α-Gal A activity: incubated 5 days in the absence of migalastat; for 10 μM migalastat α-Gal A activity: incubated 5 days with 10 μM migalastat. The assay is classed as cell-based, human. A digest of the protocol:
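Activity reported as 4-MU released (nmol/mg/hr), mean±SEM, from lysates of transiently transfected HEK-293 cells expressing mutant α-Gal A, cultured with or without 10 μM migalastat.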

B1: T158A (protein)
chain: MQLRNPELHLGCALALRFLALVSWDIPGARALDNGLARTPTMGWLHWERFMCNLDCQEEPDSCISEKLFMEMAELMVSEGWKDAGYEYLCIDDCWMAPQRDSEGRLQADPQRFPHGIRQLANYVHSKGLKLGIYADVGNKTCAGFPGSFGYYDIDAQAFADWGVDLLKFDGCYCDSLENLADGYKHMSLALNRTGRSIVYSCEWPLYMWPFQKPNYTEIRQYCNHWRNFADIDDSWKSIKSILDWTSFNQERIVDVAGPGGWNDPDMLVIGNFGLSWNQQVTQMALWAIMAAPLFMSNDLRHISPQAKALLQDKDVIAINQDPLGKQGYQLRQGDNFEVWERPLSGLAWAVAMINRQEIGGPRSYTIAVASLGKGVACNPACFITQLLPVKRKLGFYEWTSRLRSHINPTGTVLLQLENTMQMSLKDLL
In the case of B1, the “Absolute increase (% WT)” value was 28.7 % WT, the Relative increase is 1.7, the “10 μM migalastat α-Gal A activity (% WT)” value is listed as 67.3 ± 3.1 % WT and the “Baseline α-Gal A activity (% WT)” value turned out to be 38.6 ± 2.5 % WT. For the same molecule, the “Baseline α-Gal A activity” value was determined as 14835 ± 1107 nmol/mg/h and the “10 μM migalastat α-Gal A activity” value turned out to be 25678 ± 1673 nmol/mg/h.

B2: T158S (protein)
chain: MQLRNPELHLGCALALRFLALVSWDIPGARALDNGLARTPTMGWLHWERFMCNLDCQEEPDSCISEKLFMEMAELMVSEGWKDAGYEYLCIDDCWMAPQRDSEGRLQADPQRFPHGIRQLANYVHSKGLKLGIYADVGNKTCAGFPGSFGYYDIDAQSFADWGVDLLKFDGCYCDSLENLADGYKHMSLALNRTGRSIVYSCEWPLYMWPFQKPNYTEIRQYCNHWRNFADIDDSWKSIKSILDWTSFNQERIVDVAGPGGWNDPDMLVIGNFGLSWNQQVTQMALWAIMAAPLFMSNDLRHISPQAKALLQDKDVIAINQDPLGKQGYQLRQGDNFEVWERPLSGLAWAVAMINRQEIGGPRSYTIAVASLGKGVACNPACFITQLLPVKRKLGFYEWTSRLRSHINPTGTVLLQLENTMQMSLKDLL
For the molecule B2, the “Absolute increase (% WT)” value was 19.8 % WT, the Relative increase was 1.3, the “10 μM migalastat α-Gal A activity (% WT)” value stood at 99.1 ± 5.6 % WT and the “Baseline α-Gal A activity (% WT)” value was 79.3 ± 4 % WT. Besides, the “Baseline α-Gal A activity” value worked out at 31043 ± 2073 nmol/mg/h and the “10 μM migalastat α-Gal A activity” value came to 39060 ± 2937 nmol/mg/h.

B3: T158I (protein)
chain: MQLRNPELHLGCALALRFLALVSWDIPGARALDNGLARTPTMGWLHWERFMCNLDCQEEPDSCISEKLFMEMAELMVSEGWKDAGYEYLCIDDCWMAPQRDSEGRLQADPQRFPHGIRQLANYVHSKGLKLGIYADVGNKTCAGFPGSFGYYDIDAQIFADWGVDLLKFDGCYCDSLENLADGYKHMSLALNRTGRSIVYSCEWPLYMWPFQKPNYTEIRQYCNHWRNFADIDDSWKSIKSILDWTSFNQERIVDVAGPGGWNDPDMLVIGNFGLSWNQQVTQMALWAIMAAPLFMSNDLRHISPQAKALLQDKDVIAINQDPLGKQGYQLRQGDNFEVWERPLSGLAWAVAMINRQEIGGPRSYTIAVASLGKGVACNPACFITQLLPVKRKLGFYEWTSRLRSHINPTGTVLLQLENTMQMSLKDLL
On to B3, for which the “Absolute increase (% WT)” value came to 18.8 % WT, the Relative increase was 1.4, the “10 μM migalastat α-Gal A activity (% WT)” value was determined as 67.8 ± 3.4 % WT and the “Baseline α-Gal A activity (% WT)” value is reported as 49 ± 2.7 % WT. Moreover, the “Baseline α-Gal A activity” value is 17360 ± 1159 nmol/mg/h and the “10 μM migalastat α-Gal A activity” value is 24097 ± 1695 nmol/mg/h.

B4: F159I (protein)
chain: MQLRNPELHLGCALALRFLALVSWDIPGARALDNGLARTPTMGWLHWERFMCNLDCQEEPDSCISEKLFMEMAELMVSEGWKDAGYEYLCIDDCWMAPQRDSEGRLQADPQRFPHGIRQLANYVHSKGLKLGIYADVGNKTCAGFPGSFGYYDIDAQTIADWGVDLLKFDGCYCDSLENLADGYKHMSLALNRTGRSIVYSCEWPLYMWPFQKPNYTEIRQYCNHWRNFADIDDSWKSIKSILDWTSFNQERIVDVAGPGGWNDPDMLVIGNFGLSWNQQVTQMALWAIMAAPLFMSNDLRHISPQAKALLQDKDVIAINQDPLGKQGYQLRQGDNFEVWERPLSGLAWAVAMINRQEIGGPRSYTIAVASLGKGVACNPACFITQLLPVKRKLGFYEWTSRLRSHINPTGTVLLQLENTMQMSLKDLL
As for B4, the “Absolute increase (% WT)” value turned out to be 24.6 % WT, the Relative increase was found to be 1.4, the “10 μM migalastat α-Gal A activity (% WT)” value came to 89.3 ± 4.2 % WT and the “Baseline α-Gal A activity (% WT)” value was 64.7 ± 3.5 % WT. In addition, the “Baseline α-Gal A activity” value worked out at 21543 ± 1754 nmol/mg/h and the “10 μM migalastat α-Gal A activity” value came to 29402 ± 1960 nmol/mg/h.

B5: T158N (protein)
chain: MQLRNPELHLGCALALRFLALVSWDIPGARALDNGLARTPTMGWLHWERFMCNLDCQEEPDSCISEKLFMEMAELMVSEGWKDAGYEYLCIDDCWMAPQRDSEGRLQADPQRFPHGIRQLANYVHSKGLKLGIYADVGNKTCAGFPGSFGYYDIDAQNFADWGVDLLKFDGCYCDSLENLADGYKHMSLALNRTGRSIVYSCEWPLYMWPFQKPNYTEIRQYCNHWRNFADIDDSWKSIKSILDWTSFNQERIVDVAGPGGWNDPDMLVIGNFGLSWNQQVTQMALWAIMAAPLFMSNDLRHISPQAKALLQDKDVIAINQDPLGKQGYQLRQGDNFEVWERPLSGLAWAVAMINRQEIGGPRSYTIAVASLGKGVACNPACFITQLLPVKRKLGFYEWTSRLRSHINPTGTVLLQLENTMQMSLKDLL
For the molecule B5, the “Absolute increase (% WT)” value was found to be 12.8 % WT, the Relative increase came to 3.1, the “10 μM migalastat α-Gal A activity (% WT)” value is reported as 18.2 ± 2 % WT and the “Baseline α-Gal A activity (% WT)” value stood at 5.4 ± 0.2 % WT. Further, the “Baseline α-Gal A activity” value was 1906 ± 106 nmol/mg/h and the “10 μM migalastat α-Gal A activity” value is 5991 ± 499 nmol/mg/h.

B6: F159L (protein)
chain: MQLRNPELHLGCALALRFLALVSWDIPGARALDNGLARTPTMGWLHWERFMCNLDCQEEPDSCISEKLFMEMAELMVSEGWKDAGYEYLCIDDCWMAPQRDSEGRLQADPQRFPHGIRQLANYVHSKGLKLGIYADVGNKTCAGFPGSFGYYDIDAQTLADWGVDLLKFDGCYCDSLENLADGYKHMSLALNRTGRSIVYSCEWPLYMWPFQKPNYTEIRQYCNHWRNFADIDDSWKSIKSILDWTSFNQERIVDVAGPGGWNDPDMLVIGNFGLSWNQQVTQMALWAIMAAPLFMSNDLRHISPQAKALLQDKDVIAINQDPLGKQGYQLRQGDNFEVWERPLSGLAWAVAMINRQEIGGPRSYTIAVASLGKGVACNPACFITQLLPVKRKLGFYEWTSRLRSHINPTGTVLLQLENTMQMSLKDLL
In the case of B6, the “Absolute increase (% WT)” value is recorded as 28.0 % WT, the Relative increase was determined as 1.4, the “10 μM migalastat α-Gal A activity (% WT)” value stood at 103.6 ± 10.7 % WT and the “Baseline α-Gal A activity (% WT)” value came out at 75.6 ± 8.4 % WT. Besides, the “Baseline α-Gal A activity” value came to 22840 ± 1245 nmol/mg/h and the “10 μM migalastat α-Gal A activity” value is 31357 ± 1408 nmol/mg/h.
